These are literature values, as cited in article PMC3043165.

For data set [1], the target named is integrin αvβ5 (Homo sapiens) (UniProt P06756).
The target in data set [2] is integrin αIIbβ3 (Homo sapiens) (UniProt P08514).

integrin αvβ5 (Homo sapiens), sequence (P06756 31-992, chain 1 of 2): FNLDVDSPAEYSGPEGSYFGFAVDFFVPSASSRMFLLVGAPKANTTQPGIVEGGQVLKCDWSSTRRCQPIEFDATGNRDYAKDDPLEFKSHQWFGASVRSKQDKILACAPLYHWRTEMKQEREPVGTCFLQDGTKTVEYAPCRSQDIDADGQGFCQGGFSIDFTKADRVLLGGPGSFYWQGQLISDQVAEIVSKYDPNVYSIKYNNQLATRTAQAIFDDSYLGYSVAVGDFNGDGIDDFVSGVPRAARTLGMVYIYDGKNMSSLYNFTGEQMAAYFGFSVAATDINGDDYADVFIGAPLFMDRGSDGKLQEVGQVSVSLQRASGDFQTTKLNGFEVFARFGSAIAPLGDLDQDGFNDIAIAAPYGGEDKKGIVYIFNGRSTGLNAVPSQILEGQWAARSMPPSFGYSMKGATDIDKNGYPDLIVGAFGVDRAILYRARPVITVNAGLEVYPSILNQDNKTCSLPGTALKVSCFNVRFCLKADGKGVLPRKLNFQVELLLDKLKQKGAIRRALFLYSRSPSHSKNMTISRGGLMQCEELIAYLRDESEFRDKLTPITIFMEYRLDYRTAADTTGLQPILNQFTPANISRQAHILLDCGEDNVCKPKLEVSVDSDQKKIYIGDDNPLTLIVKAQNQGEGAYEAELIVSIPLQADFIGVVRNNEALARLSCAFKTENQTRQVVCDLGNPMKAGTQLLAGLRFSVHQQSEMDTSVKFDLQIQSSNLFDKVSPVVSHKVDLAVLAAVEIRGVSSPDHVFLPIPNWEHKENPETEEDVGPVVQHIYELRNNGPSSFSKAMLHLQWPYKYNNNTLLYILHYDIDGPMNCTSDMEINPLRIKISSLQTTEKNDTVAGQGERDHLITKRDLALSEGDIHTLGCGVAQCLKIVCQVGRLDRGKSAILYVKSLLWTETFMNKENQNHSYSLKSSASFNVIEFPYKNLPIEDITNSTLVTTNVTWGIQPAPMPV
integrin αvβ5 (Homo sapiens), sequence (P18084 24-719, chain 2 of 2, further chain): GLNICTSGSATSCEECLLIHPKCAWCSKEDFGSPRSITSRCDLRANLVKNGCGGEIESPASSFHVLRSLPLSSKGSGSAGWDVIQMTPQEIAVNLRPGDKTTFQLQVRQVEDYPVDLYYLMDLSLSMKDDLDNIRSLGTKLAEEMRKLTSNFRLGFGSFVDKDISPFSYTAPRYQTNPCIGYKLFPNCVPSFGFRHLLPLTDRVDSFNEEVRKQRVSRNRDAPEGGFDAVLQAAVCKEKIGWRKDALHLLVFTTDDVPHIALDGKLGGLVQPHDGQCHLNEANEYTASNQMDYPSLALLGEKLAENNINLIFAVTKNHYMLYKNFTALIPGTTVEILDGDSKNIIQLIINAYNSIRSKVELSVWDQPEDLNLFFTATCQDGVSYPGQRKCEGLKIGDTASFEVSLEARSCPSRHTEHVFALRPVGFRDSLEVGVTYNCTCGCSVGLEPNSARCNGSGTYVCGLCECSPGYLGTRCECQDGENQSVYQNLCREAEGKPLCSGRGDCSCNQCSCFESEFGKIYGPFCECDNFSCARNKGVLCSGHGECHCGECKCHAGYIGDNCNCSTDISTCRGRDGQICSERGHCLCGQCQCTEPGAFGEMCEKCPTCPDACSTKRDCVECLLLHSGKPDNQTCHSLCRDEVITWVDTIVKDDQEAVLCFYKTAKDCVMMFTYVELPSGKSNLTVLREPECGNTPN

Regarding GRGDS peptide, in data set [1], the IC50 (as a rule, the concentration that gives 50% inhibition) was more than 5000 nM.

On to c(RGDyK), for which the IC50 in data set [2] is 0.11 nM.
